The target in one test is the other Glyco variants. As to the kind of experiment: ELISA, coated variant.
Another test addresses Y283A. As to the kind of experiment: SPR, Fab over captured MICA*008.mIgG2a Ala variant; KD relative to wild type.
In another test the target is R240A. The description is as above.
The next test has as its target G275A. The description is as above.
In the next test the target is V244A. The description is as above.
A further test addresses I236A. Described as above.
A further test deals with T292A. Described as above.
A further test has as its target H290A. The description is as above.
The target in another test is R274A. The test is described as above.
Another test addresses R279A. The description is as above.
In another test the target is Q241A. The description is as above.
The next test deals with D249A. Described as above.
A further test has as its target H248A. The test is described as above.
A further test deals with E285A. The test is described as above.
The target of the next test is S245A. The test is described as above.

Several values for one entry are separate records, joined by “and”; a condition that tells them apart may be missing. Equal entries are not always repeated.

V244A, sequence (chain, as listed by the source V244A V244A limits assumed): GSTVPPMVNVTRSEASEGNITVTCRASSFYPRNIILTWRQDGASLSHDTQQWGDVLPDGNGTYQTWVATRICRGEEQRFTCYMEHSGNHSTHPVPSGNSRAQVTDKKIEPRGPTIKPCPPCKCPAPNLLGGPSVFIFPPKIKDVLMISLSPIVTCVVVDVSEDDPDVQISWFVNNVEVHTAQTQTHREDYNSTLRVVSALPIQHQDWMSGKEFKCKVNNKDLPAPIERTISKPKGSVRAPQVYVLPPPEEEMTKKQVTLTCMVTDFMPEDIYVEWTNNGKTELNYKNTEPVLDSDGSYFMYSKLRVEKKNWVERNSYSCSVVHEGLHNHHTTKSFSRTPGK
R240A, sequence (chain, as listed by the source R240A R240A limits assumed): as the sequence (chain, as listed by the source V244A V244A limits assumed) above, with R39A, A43V counted along it
Y283A, sequence (chain, as listed by the source Y283A Y283A limits assumed): as the sequence (chain, as listed by the source V244A V244A limits assumed) above, with A43V, Y82A counted along it
G275A, sequence (chain, as listed by the source G275A G275A limits assumed): as the sequence (chain, as listed by the source V244A V244A limits assumed) above, with A43V, G74A counted along it
S245A, sequence (chain, as listed by the source S245A S245A limits assumed): as the sequence (chain, as listed by the source V244A V244A limits assumed) above, with A43V, S44A counted along it
H290A, sequence (chain, as listed by the source H290A H290A limits assumed): as the sequence (chain, as listed by the source V244A V244A limits assumed) above, with A43V, H89A counted along it
Q241A, sequence (chain, as listed by the source Q241A Q241A limits assumed): as the sequence (chain, as listed by the source V244A V244A limits assumed) above, with Q40A, A43V counted along it
R279A, sequence (chain, as listed by the source R279A R279A limits assumed): as the sequence (chain, as listed by the source V244A V244A limits assumed) above, with A43V, R78A counted along it
D249A, sequence (chain, as listed by the source D249A D249A limits assumed): as the sequence (chain, as listed by the source V244A V244A limits assumed) above, with A43V, D48A counted along it
H248A, sequence (chain, as listed by the source H248A H248A limits assumed): as the sequence (chain, as listed by the source V244A V244A limits assumed) above, with A43V, H47A counted along it
R274A, sequence (chain, as listed by the source R274A R274A limits assumed): as the sequence (chain, as listed by the source V244A V244A limits assumed) above, with A43V, R73A counted along it
I236A, sequence (chain, as listed by the source I236A I236A limits assumed): as the sequence (chain, as listed by the source V244A V244A limits assumed) above, with I35A, A43V counted along it
T292A, sequence (chain, as listed by the source T292A T292A limits assumed): as the sequence (chain, as listed by the source V244A V244A limits assumed) above, with A43V, T91A counted along it
E285A, sequence (chain, as listed by the source E285A E285A limits assumed): as the sequence (chain, as listed by the source V244A V244A limits assumed) above, with A43V, E84A counted along it

B1: 13A9 (antibody, V domains shown)
VH: QVQLQQSGAELVRPGTSVKVSCKASGYAFTNYLIEWVKQRPGQGLEWIGAINPGSGATNYNEKFKDKARLTADKSSNTAYLQFSSLTSDDSAVYFCARFLGNYFDNWGQGATLTVSS
VL: DIQMTQSPASLSASVGETVTITCRASGNIHSYLAWYQQKQGKSPQLLVYYAETLADGVPSRFSGRGSGTQYSLKINSLQPEDFGSYFCQQFWTTPYTFGGGTKVEIK
As to B1, in the test with the other Glyco variants, the Elisa value is 3.8 and 3.9.

B2: 7D4.6 Fab (Fab, V domains shown)
VH: DVQLQESGPGLVKPSQSLSLTCTVTGYSITSDYAWNWIRQFPRNKLEWMGYINYSGTTNYNPSLKSRISITRDTSKNQFFLQLISVTTEDTATYYCSYYRYDGAWFPYWGQGTLVTVSA
VL: DIQMTQSPASLSASVGETVTITCRASGNIHNYLAWYQQKQGKSPQLLVYNAIMLADGVPSRFSASGSGTQYSLKINSLQPEDFGSYYCQHFWSFPLTFGAGTKVEIK
With B2, the fold-decrease in affinity with Y283A turned out to be 3.2; with R240A, 1500; with G275A, 3.1; with V244A, 8.6.

B3: 6F8.7 Fab (Fab, V domains shown)
VH: DVQLQGSGPGLVKPSQSLSLTCSVTGYSITNDYYWNWIRQFPGNKLEWMGFISFGGSNNYNPSLKNRISITRDTSKNQFFLKLSSVTTEDTATYYCARYDGRGAWFAYWAQGTLVTVSA
VL: DIQMTQSPASLSASVGETVTITCRASGNIHNYLAWYQQKQGKSPQLLVYDAITLADGVPSRFSGSGSGTQYSLKINSLQPEDFGNYYCQHFWSFPLTFGAGTKVEIK
Take B3: the fold-decrease in affinity in the test with V244A came to 5.5.

B4: 1D5 Fab (Fab, V domains shown, not shown: a dimerising Fc or GST)
VH: EIQLQQSGPELVKPGASVKVSCKASGYAFTSQNIYWVKQSHGKSLEWIGYIEPYNVVPMYNPKFKGKATLTVDKSSSSAYIHLNSLTSEDSAIYYCARSGSSNFDYWGQGTTLTVSS
VL: EIILTQSPTTMAASPGEKITITCSASSSISSHYLHWYQQKSGFSPKLLIYRTSNLASGVPARFSGSGSGTSYSLTIGTMEAEDVATYYCQQGSSLPLTFGAGTKVEIK
With B4, the fold-decrease in affinity with Y283A turned out to be 6260; with I236A it was 0.01; with T292A, 3040; in the test with R240A it was 15500; with G275A, 0.03; with H290A it was 14400. Besides, the fold-decrease in affinity stood at 3 in the test with R274A; 3950 with R279A; 9830 with Q241A; 3.5 with D249A; 16 with H248A; 10400 in the test with V244A. Besides, the fold-decrease in affinity in the test with E285A was found to be 1060; with S245A, 13.

The values above are taken from patent US20200055939A1.
